In patent US20200317768A1 (published 2020):

T1: cynomolgus monkey FcγRIIIaS extracellular domain, His-tagged (cynomolgus monkey, UniProt Q8SPW2 21-206 at identity 1.00))
T1 construct: also called cyno FcγRIIIaS; cynoFcγRIIIaS; not shown: C-terminal His-tag
T1 chain: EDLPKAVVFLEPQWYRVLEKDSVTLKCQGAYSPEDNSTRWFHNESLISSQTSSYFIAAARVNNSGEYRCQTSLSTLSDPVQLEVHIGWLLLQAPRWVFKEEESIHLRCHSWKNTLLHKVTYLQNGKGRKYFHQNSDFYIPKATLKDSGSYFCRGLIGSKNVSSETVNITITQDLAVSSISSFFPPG

T2: cynomolgus monkey FcγRIIa1 extracellular domain, His-tagged (cynomolgus monkey)
T2 construct: also called cyno FcγRIIa1; cynoFcgRIIa1; not shown: C-terminal His-tag
T2 chain: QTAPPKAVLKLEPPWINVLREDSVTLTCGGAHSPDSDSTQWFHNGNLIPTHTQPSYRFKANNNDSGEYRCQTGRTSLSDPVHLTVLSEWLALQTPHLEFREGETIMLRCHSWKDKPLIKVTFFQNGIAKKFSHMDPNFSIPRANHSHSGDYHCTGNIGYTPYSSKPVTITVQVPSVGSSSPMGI

T3: cynomolgus monkey FcγRIIa2 extracellular domain, His-tagged (cynomolgus monkey)
T3 construct: also called cyno FcγRIIa2; cynoFcgRIIa2; not shown: C-terminal His-tag
T3 chain: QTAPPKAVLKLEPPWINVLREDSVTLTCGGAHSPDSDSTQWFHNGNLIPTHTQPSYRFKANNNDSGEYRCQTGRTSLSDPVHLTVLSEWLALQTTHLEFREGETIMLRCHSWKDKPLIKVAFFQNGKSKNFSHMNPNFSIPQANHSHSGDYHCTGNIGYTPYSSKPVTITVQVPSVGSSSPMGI

T4: cynomolgus monkey FcγRIIa3 extracellular domain, His-tagged (cynomolgus monkey)
T4 construct: also called cyno FcγRIIa3; cynoFcgRIIa3; not shown: C-terminal His-tag
T4 chain: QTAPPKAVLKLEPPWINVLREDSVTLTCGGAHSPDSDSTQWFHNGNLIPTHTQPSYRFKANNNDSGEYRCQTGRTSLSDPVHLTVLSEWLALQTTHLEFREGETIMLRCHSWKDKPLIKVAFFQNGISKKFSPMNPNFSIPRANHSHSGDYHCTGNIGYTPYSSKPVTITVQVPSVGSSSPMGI

T5: cynomolgus monkey FcγRIIb extracellular domain, His-tagged (cynomolgus monkey)
T5 construct: also called cyno FcγRIIb; cynoFcγRIIb; not shown: C-terminal His-tag
T5 chain: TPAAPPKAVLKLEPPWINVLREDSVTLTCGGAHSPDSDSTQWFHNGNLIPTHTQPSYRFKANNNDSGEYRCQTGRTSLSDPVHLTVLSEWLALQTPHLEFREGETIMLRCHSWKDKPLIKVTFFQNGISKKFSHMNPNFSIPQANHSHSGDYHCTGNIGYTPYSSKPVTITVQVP

T6: human FcγRIIaH extracellular domain, His-tagged (human, UniProt P12318 34-217)
T6 construct: also called human FcγRIIa (type H); FcgRIIaH; not shown: C-terminal His-tag
T6 sequence: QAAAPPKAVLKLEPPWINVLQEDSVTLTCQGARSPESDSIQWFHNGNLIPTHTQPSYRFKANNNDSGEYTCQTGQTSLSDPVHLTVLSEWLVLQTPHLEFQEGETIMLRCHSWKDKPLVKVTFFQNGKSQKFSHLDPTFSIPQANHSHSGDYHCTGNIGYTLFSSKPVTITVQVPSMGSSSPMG

T7: human FcγRIIaR extracellular domain, His-tagged (human, UniProt P12318 34-217)
T7 construct: also called human FcγRIIa (type R); FcgRIIaR; not shown: C-terminal His-tag
T7 chain: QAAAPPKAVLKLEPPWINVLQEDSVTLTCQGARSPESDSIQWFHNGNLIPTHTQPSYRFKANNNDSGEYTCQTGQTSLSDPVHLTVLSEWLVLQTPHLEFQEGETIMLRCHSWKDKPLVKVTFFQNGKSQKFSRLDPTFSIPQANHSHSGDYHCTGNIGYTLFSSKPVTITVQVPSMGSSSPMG

T8: human FcγRIIb extracellular domain, His-tagged (human, UniProt P31994 43-217)
T8 construct: also called FcgRIIb (human); not shown: C-terminal His-tag
T8 sequence: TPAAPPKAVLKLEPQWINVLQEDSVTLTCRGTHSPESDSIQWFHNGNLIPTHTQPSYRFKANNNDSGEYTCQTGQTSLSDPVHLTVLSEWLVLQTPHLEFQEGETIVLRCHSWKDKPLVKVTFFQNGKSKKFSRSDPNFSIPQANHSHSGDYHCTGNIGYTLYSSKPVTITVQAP


Assays:
[1] = target: T1, cynomolgus monkey FcγRIIIaS …; experiment: SPR (BIACORE), captured antibody, FcgR as analyte
[2] = target: T2, cynomolgus monkey FcγRIIa1 …; experiment: SPR (BIACORE); KD of SG1 divided by KD of variant
Protocol: (§1) The kinetic analysis of interactions between these antibodies and FcγR was carried out using BIACORE® T200 or BIACORE® 4000 (GE Healthcare). HBS-EP+ (GE Healthcare) was used as the running buffer, and the measurement temperature was set to 25° C. A chip produced by immobilizing Protein A. Protein A/G or mouse anti-human IgG kappa light chain (BD Biosciences) onto a Series S Sensor Chip CM4 or CM5 (GE Healthcare) by the amine-coupling method was used. […] After the measurement, the antibody captured on the chip was washed off by allowing reaction with 10 mM glycine-HCl, pH1.5 and 25 mM NaOH so that the chip was regenerated and used repeatedly. The sensorgrams obtained as measurement results were analyzed by the 1:1 Langmuir binding model using the BIACORE® Evaluation Software to calculate the binding rate constant ka (L/mol/s) and dissociation rate constant kd (l/s), and the dissociation constant KD (mol/L) was calculated from these values. […] Regarding such interactions, KD values were calculated using the following 1:1 binding model described in BIACORE® T100 Software Handbook BR1006-48 Edition AE.

[3] = target: T3, cynomolgus monkey FcγRIIa2 …; experiment: SPR (BIACORE); KD of SG1 divided by KD of variant
Protocol: as §1

[4] = target: T4, cynomolgus monkey FcγRIIa3 …; experiment: SPR (BIACORE); KD of SG1 divided by KD of variant
Protocol: as §1

[5] = target: T5, cynomolgus monkey FcγRIIb extracellular …; experiment: SPR (BIACORE); KD of SG1 divided by KD of variant
Protocol: as §1

[6] = target: T1, cynomolgus monkey FcγRIIIaS …; experiment: SPR (BIACORE); KD of SG1 divided by KD of variant
Protocol: as §1

[7] = target: T6, human FcγRIIaH extracellular domain, …; experiment: SPR (BIACORE); KD of SG1 divided by KD of variant
Protocol: as §1

[8] = target: T7, human FcγRIIaR extracellular domain, …; experiment: SPR (BIACORE); KD of SG1 divided by KD of variant
Protocol: as §1

[9] = target: T8, human FcγRIIb extracellular domain, …; experiment: SPR (BIACORE); KD of SG1 divided by KD of variant
Protocol: as §1

Binder | Kd [1] | KD fold (SG1 = 1) [2] | KD fold (SG1 = 1) [3] | KD fold (SG1 = 1) [4] | KD fold (SG1 = 1) [5] | KD fold (SG1 = 1) [6] | KD fold (SG1 = 1) [7] | KD fold (SG1 = 1) [8] | KD fold (SG1 = 1) [9]
MS_M103205H795-SG1/M103202L889-SK1 (antibody, human IgG1, kappa, Parent antibody with heavy chain constant region SG1; also called MS1032LO06-SG1; copies: 2 + 2) heavy: not shown light: DIVMTQSPATLSLSPGERATLSCTSSQSVYHANWLSWFQQKPGQPPKLLIYWASTLAYGVPSRFSGSGSGTDFTLTISSLQPEDAATYYCAGGYGGGRYAFGQGTKVEIKRTVAAPSVFIFPPSDEQLKSGTASVVCLLNNFYPREAKVQWKVDNALQSGNSQESVTEQDSKDSTYSLSSTLTLSKADYEKHKVYACEVTHQGLSSPVTKSFNRGEC | 360 nM | 1 fold | 1 fold | 1 fold | 1 fold | 1 fold | 1 fold | 1 fold | 1 fold
M103205H795-MY265/M103202L889-SK1 (antibody, human IgG1, kappa, also called MS103205H795-MY265; copies: 2 + 2) heavy: QVTLKESGPVLVKPTETLTLTCTVSGIDLSHDDISWVRQAPGKGLEWVGIISYAGSTYYASWAKGRLTISKDTSKNQVVLTMTNMDPVDTATYYCARGVPAYSHGGDLWGQGTLVTVSSASTKGPSVFPLAPSSKSTSGGTAALGCLVKDYFPEPVTVSWNSGALTSGVHTFPAVLQSSGLYSLSSVVTVPSSSLGTQTYICNVNHKPSNTKVDKKVEPKSCDKTHTCPPCPAPELLTGPSVFLFPPKPKDTLMISRTPEVTCVVVDVSDEDPEVKFNWYVDGVEVHNAKTKPREEQYNSTYRVVSVLTVLHQDWLNGKEYKCKVSNKALPKPIEKTISKAKGQPREPQVYTLPPSREEMTKNQVSLTCLVKGFYPSDIAVEWESNGQPENNYKTTPPVLDSDGSFFLYSKLTVDKSRWQQGNVFSCSVMHEALHNHYTQKSLSLSP light: DIVMTQSPATLSLSPGERATLSCTSSQSVYHANWLSWFQQKPGQPPKLLIYWASTLAYGVPSRFSGSGSGTDFTLTISSLQPEDAATYYCAGGYGGGRYAFGQGTKVEIKRTVAAPSVFIFPPSDEQLKSGTASVVCLLNNFYPREAKVQWKVDNALQSGNSQESVTEQDSKDSTYSLSSTLTLSKADYEKHKVYACEVTHQGLSSPVTKSFNRGEC | 2000 nM | 1.5 fold | 2.7 fold | 3.5 fold | 3.1 fold | 0.2 fold | 3.3 fold | 2.5 fold | 2.1 fold
M103205H795-MY441/M103202L889-SK1 (antibody, human IgG1, kappa, copies: 2 + 2) heavy: QVTLKESGPVLVKPTETLTLTCTVSGIDLSHDDISWVRQAPGKGLEWVGIISYAGSTYYASWAKGRLTISKDTSKNQVVLTMTNMDPVDTATYYCARGVPAYSHGGDLWGQGTLVTVSSASTKGPSVFPLAPSSKSTSGGTAALGCLVKDYFPEPVTVSWNSGALTSGVHTFPAVLQSSGLYSLSSVVTVPSSSLGTQTYICNVNHKPSNTKVDKKVEPKSCDKTHTCPPCPAAELLTGPSVFLFPPKPKDTLMISRTPEVTCVVVDVSDEDPEVKFNWYVDGVEVHNAKTKPREEQYNSTYRVVSVLTVLHQDWLNGKEYKCKVSNKALPKPIEKTISKAKGQPREPQVYTLPPSREEMTKNQVSLTCLVKGFYPSDIAVEWESNGQPENNYKTTPPVLDSDGSFFLYSKLTVDKSRWQQGNVFSCSVMHEALHNHYTQKSLSLSP light: DIVMTQSPATLSLSPGERATLSCTSSQSVYHANWLSWFQQKPGQPPKLLIYWASTLAYGVPSRFSGSGSGTDFTLTISSLQPEDAATYYCAGGYGGGRYAFGQGTKVEIKRTVAAPSVFIFPPSDEQLKSGTASVVCLLNNFYPREAKVQWKVDNALQSGNSQESVTEQDSKDSTYSLSSTLTLSKADYEKHKVYACEVTHQGLSSPVTKSFNRGEC | 2600 nM | 0.8 fold | 1.5 fold | 2.1 fold | 2 fold | 0.1 fold | 1.9 fold | 1.8 fold | 1.6 fold
M103205H795-MY442/M103202L889-SK1 (antibody, human IgG1, kappa, copies: 2 + 2) heavy: QVTLKESGPVLVKPTETLTLTCTVSGIDLSHDDISWVRQAPGKGLEWVGIISYAGSTYYASWAKGRLTISKDTSKNQVVLTMTNMDPVDTATYYCARGVPAYSHGGDLWGQGTLVTVSSASTKGPSVFPLAPSSKSTSGGTAALGCLVKDYFPEPVTVSWNSGALTSGVHTFPAVLQSSGLYSLSSVVTVPSSSLGTQTYICNVNHKPSNTKVDKKVEPKSCDKTHTCPPCPADELLTGPSVFLFPPKPKDTLMISRTPEVTCVVVDVSDEDPEVKFNWYVDGVEVHNAKTKPREEQYNSTYRVVSVLTVLHQDWLNGKEYKCKVSNKALPKPIEKTISKAKGQPREPQVYTLPPSREEMTKNQVSLTCLVKGFYPSDIAVEWESNGQPENNYKTTPPVLDSDGSFFLYSKLTVDKSRWQQGNVFSCSVMHEALHNHYTQKSLSLSP light: DIVMTQSPATLSLSPGERATLSCTSSQSVYHANWLSWFQQKPGQPPKLLIYWASTLAYGVPSRFSGSGSGTDFTLTISSLQPEDAATYYCAGGYGGGRYAFGQGTKVEIKRTVAAPSVFIFPPSDEQLKSGTASVVCLLNNFYPREAKVQWKVDNALQSGNSQESVTEQDSKDSTYSLSSTLTLSKADYEKHKVYACEVTHQGLSSPVTKSFNRGEC | 2100 nM | 0.7 fold | 1.2 fold | 2.5 fold | 1.6 fold | 0.2 fold | 1.5 fold | 2.6 fold | 2.6 fold
